Test [1] deals with T1, human complement C5 protein (human, UniProt P01031 19-673; P01031 678-1676, Beta and alpha chains are joined by disulfide bonds. C5 was biotinylated in some assays.).
In test [2] the target is T1, human complement C5 protein. The experiment in a line: SPR (Biacore), IgG captured via anti-human Fc, C5 injected. The procedure:
(§1) A CM4 chip was coated with 50 μg/ml goat anti-human Fc antibody (500-2000 RU) in 10 mM acetate buffer, pH 4.5, using standard EDC-NHS amine coupling chemistry. Each anti-human C5 IgG was captured on the chip in HBS-EP buffer at constant flow rate of 10 μl/min for a contact time leading to a ligand density around 20 RU. […] Each cycle was completed with two regeneration steps with phosphoric acid. All running conditions were carried out at 25° C. in 1× HBS-EP buffer. The resulting signals were adjusted by double referencing, substracting the refraction index values from the reference flow cell and the binding step with no analyte. Data were collected at 10 Hz and analyzed using the Biacore T100 Evaluation Software Version 1.1 (GE). This program uses a global fitting analysis method for the determination of rate and affinity constants for each interaction. […]
In general terms: In SPR one partner is held on a chip, and binding of the other changes the refractive index at the surface.

Test [3] shares this target. The source holds these as a separate data set.
Test [4] has the same target. This is another data set of the same source.
For test [5] the target is unchanged. The source holds these as a separate data set.
For test [6] the target is unchanged. Kind of test: SET (MSD), IgG, 1st measurement. The method, then: (§2) In order to improve the sensitivity and accuracy of the SET method, it was transferred from classical ELISA to ECL based technology (Haenel et al., Anal Biochem 339:182-184 (2005)).
(§3) 1 mg/ml goat-anti-human (Fab)₂ fragment specific antibodies (Dianova) were labelled with ECL Sulfo-TAG™ NHS-Ester (Meso Scale Discovery, Gaithersburg, Md., USA) according to the manufacturer's instructions. The experiments were carried out in polypropylene microliter plates and PBS pH 7.4 with 0.5% BSA and 0.02% Tween 20 as assay buffer. […] Wells without antigen were used to determine Bmax values; wells containing neither antigen nor IgG were used to determine background. After addition of e.g. 10 pM IgG (final concentration in 60 μl final volume), the mixture was incubated over night at RT. The applied IgG concentration was similar to or below the expected KD.
(§4) Streptavidin MSD plates were coated with 0.2 μg/ml biotinylated human C5 (30 μl/well) and blocked with 5% BSA in PBS. Subsequently the equilibrated samples were transferred to those plates (30 μl per well) and incubated for 20 min. After washing, 30 μl/well of the ECL Sulfo-tag labeled detection antibody (goat anti-human (Fab)₂) in a final dilution of 1:1500 was added to the MSD plate and incubated for 30 min on an Eppendorf shaker (700 rpm).

For test [7] the target is unchanged. Kind of test: SET (MSD), IgG, 2nd measurement. The method, then:
as §2, §3, §4

The target of test [8] is cynomolgus C5 (Macaca fascicularis) (cynomolgus (Macaca fascicularis)).
In test [9] the target is T1, human complement C5 protein. The experiment in a line: cell-based or functional assay.
The target in test [10] is T2, cynomolgus C5 (Macaca fascicularis) (cynomolgus (Macaca fascicularis), Beta and alpha chains are joined by disulfide bonds; the protein is a serum glycoprotein.).
T2 construct: also called cyno C5; cynoC5
T2 beta: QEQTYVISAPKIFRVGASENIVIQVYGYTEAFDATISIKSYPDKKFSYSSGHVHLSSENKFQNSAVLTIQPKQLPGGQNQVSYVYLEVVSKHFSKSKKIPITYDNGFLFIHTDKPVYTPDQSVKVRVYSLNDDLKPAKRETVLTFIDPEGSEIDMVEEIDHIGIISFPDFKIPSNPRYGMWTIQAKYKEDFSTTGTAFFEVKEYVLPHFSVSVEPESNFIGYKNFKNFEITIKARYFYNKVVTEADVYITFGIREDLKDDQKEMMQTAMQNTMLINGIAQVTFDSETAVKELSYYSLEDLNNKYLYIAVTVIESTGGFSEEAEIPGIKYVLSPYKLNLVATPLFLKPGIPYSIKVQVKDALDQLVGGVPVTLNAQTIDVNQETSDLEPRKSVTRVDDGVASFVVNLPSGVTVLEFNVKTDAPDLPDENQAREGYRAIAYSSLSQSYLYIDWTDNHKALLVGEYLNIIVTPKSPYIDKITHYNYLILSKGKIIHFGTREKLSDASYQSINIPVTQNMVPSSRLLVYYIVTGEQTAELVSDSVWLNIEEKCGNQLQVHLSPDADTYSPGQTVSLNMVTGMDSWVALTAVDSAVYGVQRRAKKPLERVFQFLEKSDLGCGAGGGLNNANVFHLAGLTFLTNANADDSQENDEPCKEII
T2 alpha: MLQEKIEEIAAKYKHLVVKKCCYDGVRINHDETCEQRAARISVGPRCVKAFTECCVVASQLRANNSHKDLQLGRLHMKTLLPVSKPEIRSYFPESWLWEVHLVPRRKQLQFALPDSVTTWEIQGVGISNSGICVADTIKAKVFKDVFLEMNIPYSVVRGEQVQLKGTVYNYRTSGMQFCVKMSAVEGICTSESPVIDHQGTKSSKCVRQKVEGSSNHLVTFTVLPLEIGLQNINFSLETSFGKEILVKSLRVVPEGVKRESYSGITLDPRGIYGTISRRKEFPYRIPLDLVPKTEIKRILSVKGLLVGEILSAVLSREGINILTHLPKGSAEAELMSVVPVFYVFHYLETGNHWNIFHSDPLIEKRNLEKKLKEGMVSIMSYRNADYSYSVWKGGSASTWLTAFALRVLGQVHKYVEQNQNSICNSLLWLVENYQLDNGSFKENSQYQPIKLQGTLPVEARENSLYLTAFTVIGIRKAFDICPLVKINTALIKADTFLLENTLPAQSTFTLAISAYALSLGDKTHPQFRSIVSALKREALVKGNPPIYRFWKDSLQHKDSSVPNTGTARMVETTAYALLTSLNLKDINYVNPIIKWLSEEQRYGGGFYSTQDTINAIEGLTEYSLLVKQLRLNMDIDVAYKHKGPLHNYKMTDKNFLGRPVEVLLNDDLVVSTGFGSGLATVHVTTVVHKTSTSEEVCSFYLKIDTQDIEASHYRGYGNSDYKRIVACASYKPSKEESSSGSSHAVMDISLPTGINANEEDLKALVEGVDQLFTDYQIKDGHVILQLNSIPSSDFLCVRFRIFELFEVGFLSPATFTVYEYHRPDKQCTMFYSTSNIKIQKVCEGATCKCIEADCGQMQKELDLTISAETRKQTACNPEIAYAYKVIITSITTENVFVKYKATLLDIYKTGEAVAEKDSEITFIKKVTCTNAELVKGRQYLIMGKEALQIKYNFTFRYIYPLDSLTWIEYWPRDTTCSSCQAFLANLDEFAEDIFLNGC
Kind of test: SPR (Biacore), IgG captured via anti-human Fc, C5 injected. The procedure: as §1

Test [11] deals with T2, cynomolgus C5 (Macaca fascicularis). Kind of test: cell-based or functional assay.
Test [12] shares this target. Kind of test: SET (MSD), IgG, 1st measurement. The method, then:
as §2, §3, §4

Test [13] has the same target. Kind of test: SET (MSD), IgG, 2nd measurement. The method, then:
as §2, §3, §4

Test [14] deals with T1, human complement C5 protein. Kind of test: cell-based or functional assay. The source holds these as a separate data set.
For test [15] the target is unchanged. The experiment in a line: cell-based or functional assay. This is another data set of the same source.
The target in another test is T3, human complement C3 (human, UniProt P01024 23-667; P01024 672-1663).
T3 construct: Counter target in the ELISAs, coated directly or biotinylated; also called human C3
Kind of test: solution ELISA: Fab with biotinylated antigen on NeutrAvidin plate, His-tag detection [huC3 panel]. The procedure: Fabs were incubated with biotinylated antigen on a Neutravidin plate and detected via the histidin tag.
In general terms: An ELISA detects its analyte on a solid surface through an enzyme-linked reagent.

Five molecules from US20130064836A1 (Novartis, published 2013) can be followed below.

Like-named read-outs stand apart in the source and are kept apart here.

T3 sequence (P01024 23-667 limits assumed, chain 1 of 2): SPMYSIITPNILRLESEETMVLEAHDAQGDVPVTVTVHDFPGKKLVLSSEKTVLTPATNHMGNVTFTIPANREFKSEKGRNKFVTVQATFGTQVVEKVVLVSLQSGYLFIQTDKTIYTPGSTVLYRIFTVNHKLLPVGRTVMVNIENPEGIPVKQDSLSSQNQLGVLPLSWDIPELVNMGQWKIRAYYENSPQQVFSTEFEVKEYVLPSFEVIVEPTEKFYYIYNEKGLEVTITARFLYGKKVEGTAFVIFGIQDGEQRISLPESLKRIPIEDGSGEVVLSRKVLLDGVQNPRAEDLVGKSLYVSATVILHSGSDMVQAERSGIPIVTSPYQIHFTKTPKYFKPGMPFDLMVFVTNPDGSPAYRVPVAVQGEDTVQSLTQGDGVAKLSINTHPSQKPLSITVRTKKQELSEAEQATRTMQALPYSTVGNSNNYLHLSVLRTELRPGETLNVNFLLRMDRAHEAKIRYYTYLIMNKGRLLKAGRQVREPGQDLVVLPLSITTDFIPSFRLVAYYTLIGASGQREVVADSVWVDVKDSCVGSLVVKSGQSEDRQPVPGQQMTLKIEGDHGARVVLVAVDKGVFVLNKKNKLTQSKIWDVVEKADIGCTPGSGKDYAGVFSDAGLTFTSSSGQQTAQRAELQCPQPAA
T3 sequence (P01024 672-1663 limits assumed, chain 2 of 2): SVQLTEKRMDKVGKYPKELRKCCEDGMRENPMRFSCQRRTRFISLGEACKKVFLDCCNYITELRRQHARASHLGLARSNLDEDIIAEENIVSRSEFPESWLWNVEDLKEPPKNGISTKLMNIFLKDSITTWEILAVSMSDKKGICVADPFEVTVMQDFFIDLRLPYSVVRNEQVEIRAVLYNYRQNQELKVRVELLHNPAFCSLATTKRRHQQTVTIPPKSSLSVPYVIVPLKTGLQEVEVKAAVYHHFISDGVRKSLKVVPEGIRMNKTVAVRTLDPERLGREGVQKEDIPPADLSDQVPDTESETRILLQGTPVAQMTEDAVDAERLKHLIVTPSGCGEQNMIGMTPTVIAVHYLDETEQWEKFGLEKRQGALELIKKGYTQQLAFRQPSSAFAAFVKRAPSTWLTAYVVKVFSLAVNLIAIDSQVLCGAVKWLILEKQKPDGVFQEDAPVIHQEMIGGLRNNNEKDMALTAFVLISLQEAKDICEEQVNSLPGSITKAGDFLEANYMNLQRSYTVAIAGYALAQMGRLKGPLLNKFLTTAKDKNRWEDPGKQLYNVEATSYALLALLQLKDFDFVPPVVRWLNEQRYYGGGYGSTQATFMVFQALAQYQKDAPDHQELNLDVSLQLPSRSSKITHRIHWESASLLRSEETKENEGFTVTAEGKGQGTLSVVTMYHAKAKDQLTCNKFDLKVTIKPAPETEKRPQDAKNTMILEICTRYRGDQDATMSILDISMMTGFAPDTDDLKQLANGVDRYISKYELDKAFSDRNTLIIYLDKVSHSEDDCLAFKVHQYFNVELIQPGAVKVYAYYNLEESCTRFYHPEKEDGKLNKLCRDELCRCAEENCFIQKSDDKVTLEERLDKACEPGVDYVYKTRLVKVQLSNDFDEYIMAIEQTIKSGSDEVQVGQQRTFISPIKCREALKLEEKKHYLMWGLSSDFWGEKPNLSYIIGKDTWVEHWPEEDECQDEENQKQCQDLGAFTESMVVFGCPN

One may read the Kd as the equilibrium constant for the complex coming apart. Take 5G1.1 (antibody): in test [1], the IC50 (read off the curve); hemolysis AP, 100 pM human C5 [panel b] worked out at 90 pM. The molecule further returned a Kd in [2] of 56 pM. Also, in test [3], the IC50; hemolysis AP, 100 pM human C5 [panel a] came to 0.14 nM and the IC50; hemolysis AP, 100 pM human C5 [panel c] came out at 0.205 nM. Further, the IC50; hemolysis AP, 100 pM human C5 [panel i] in test [4] was found to be 58.2 pM. In test [5], this molecule displayed an IC50 (read off the curve); C5a ELISA on AP hemolysis supernatants, 20% human serum [panel d] of 20000 pM and an IC50 (read off the curve); hemolysis AP, 20% human serum [panel c] of 50000 pM. The same molecule came in with an equilibrium dissociation constant (Kd) in test [6] of 24 pM. The molecule further showed a Kd in test [7] of 19 pM. The molecule also gave an IC50; hemolysis AP, 100 pM cyno C5 in 20% human C5-depleted serum [panel a] in [8] of 1.71 nM.

B1: MOR08111 (antibody, human IgG1, lambda, L234A L235A, V domains shown)
VH: EVTLKESGPALVKPTQTLTLTCTFSGFSLSTSGGGVSWIRQPPGKALEWLANIDDADIKDYSPSLKSRLTISKDTSKNQVVLTMTNMDPVDTATYYCARGPYGFDSWGQGTLVTVSS
VL: ESALTQPASVSGSPGQSITISCTGTSSDIGTYNYVSWYQQHPGKAPKLMIYDDSNRPSGVSNRFSGSKSGNTASLTISGLQAEDEADYYCQSYDSQSIVFGGGTKLTVLG
notes: Germlined final IgG, human IgG1AA format
As usually defined, the koff is a measure of how fast the partners let go of each other. One may read the kon as the rate constant with which the complex forms. A high value points to faster complex formation. Take B1: in test [9], the “IC50 (read off the curve); hemolysis AP, 100 pM human C5 [panel a]” value is around 0.1 nM. Moreover, the Kd amounted to 31 pM in [2]; 144 pM in test [10]; 5 pM in test [6]; 14 pM in [12]; 3 pM in test [7]; 17 pM in test [13]. Besides, the koff amounted to 3.07e-05 s⁻¹ in test [2] and 0.000128 s⁻¹ in test [10]. In addition, the kon stood at 1e+06 M⁻¹ s⁻¹ in test [2] and 891000 M⁻¹ s⁻¹ in test [10]. For the same molecule, the “IC50 (read off the curve); hemolysis CP, 5% cyno serum” value in [11] was around 20000 pM. In test [14], the “IC50; hemolysis CP, 20% human serum” value is 21500 pM.

B2: MOR08114 (antibody, human IgG1, lambda, L234A L235A, V domains shown)
VH: EVQLVQSGAEVKKPGESLKISCKGSGYSFTSYYIGWVRQMPGKGLEWMGIIDPTDSQTAYSPSFQGQVTISADKSISTAYLQWSSLKASDTAMYYCARYMMRGFDHWGQGTLVTVSS
VL: SYELTQPPSVSVAPGQTARISCSGDSLGDYYAYWYQQKPGQAPVLVIYKDNNRPSGIPERFSGSNSGNTATLTISGTQAEDEADYYCQTWDTGESGVFGGGTKLTVLG
notes: Germlined final IgG, human IgG1AA format; also called Antibody 8114
Take B2: the “IC50 (read off the curve); hemolysis AP, 100 pM human C5 [panel c]” value in [9] is around 20 pM. For the same molecule, the Kd worked out at 15 pM in [2]; 31 pM in [10]; 1 pM in test [6]; 5 pM in [12]; 2 pM in test [7]; 4 pM in [13]. The figures for the koff in test [2] and in test [10] were 3.12e-05 s⁻¹ and 3.13e-05 s⁻¹, respectively. Moreover, the kon in [2] was 2.09e+06 M⁻¹ s⁻¹; in test [10], 1.06e+06 M⁻¹ s⁻¹. Moreover, the “IC50 (read off the curve); hemolysis CP, 5% cyno serum” value in test [11] was around 30000 pM. In addition, in [15], the “IC50 (read off the curve); hemolysis AP, 20% human serum [panel c]” value was around 50000 pM. For the same molecule, in test [14], the “IC50; hemolysis CP, 20% human serum” value worked out at 34200 pM.

B3: MOR07872 (Fab, V domains shown)
VH: QVQLVQSGAEVKKPGESLKISCKGSGYSFTSYYIGWVRQMPGKGLEWMGIIDPSDSHTTYSPSFQGQVTISADKSISTAYLQWSSLKASDTAMYYCARYMMRGFDHWGQGTLVTVSS
VL: DIELTQPPSVSVAPGQTARISCSGDSLGDYYAYWYQQKPGQAPVLVIYKDNNRPSGIPERFSGSNSGNTATLTISGTQAEDEADYYCQTWDILPHGLVFGGGTKLTVLG
notes: light CS or A
As to B3, the binding result with human complement C3 was “no binding (tested: 100 nM)”.

B4: MOR07873 (Fab, V domains shown)
VH: QVQLVQSGAEVKKPGESLKISCKGSGYSFTSYYIGWVRQMPGKGLEWMGIIDPSDSHTTYSPSFQGQVTISADKSISTAYLQWSSLKASDTAMYYCARYMMRGFDHWGQGTLVTVSS
VL: DIELTQPPSVSVAPGQTARISCSGDSLGDYYAYWYQQKPGQAPVLVIYKDNNRPSGIPERFSGSNSGNTATLTISGTQAEDEADYYCQAWTDSPTGLVFGGGTKLTVLG
notes: light CS or A
Consider B4, for which the binding result with human complement C3 was “no binding (tested: 100 nM)”.
